This note sets out measurements from patent US20220119492A1 (MEDIKINE, published 2022).

Bridge positions count the residues as written; N and C are the ends. Ends that are not written are not given here.

This test has as its target T1, human IL-2Rβ (CD122 protein, Fc Tag) (27-239) (human, UniProt P14784 27-239).
T1 construct: range 27-239; Bought protein; also called hu-IL-2Rβ subunit; IL-2Rβ subunit; not shown: Fc tag of the bought protein
T1 sequence (looked up): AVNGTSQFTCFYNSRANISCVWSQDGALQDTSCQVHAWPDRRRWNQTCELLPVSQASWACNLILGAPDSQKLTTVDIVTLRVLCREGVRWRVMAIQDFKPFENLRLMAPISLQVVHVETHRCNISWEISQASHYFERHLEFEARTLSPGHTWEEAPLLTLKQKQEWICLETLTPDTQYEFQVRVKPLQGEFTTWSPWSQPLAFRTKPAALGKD
Nature of the test: phage ELISA competition. The gist of the method:
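Test ligands and a phage tracer competed for human IL-2Rβ-Fc in a binding ELISA, with IC50 obtained from the absorbance readings of the ligand dilution series. Without washing, 50 μL of phage tracer went on for 45 min at 4° C, and bound phage was developed with TMB for 1 to 15 min at 25° C before stop solution and absorbance at 450 nm.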
Background: ELISA stands for enzyme-linked immunosorbent assay.

As usually defined, the IC50 is the point on the concentration scale where inhibition reaches its midpoint. WYPCWLAQLGELCDLD [SEQ ID NO 2691] came in with an IC50 below 100 µM. In turn, WYPCWLAQVGELCDLD [SEQ ID NO 2885] showed a half-maximal inhibitory concentration (IC50) below 100 µM. Take EQRNRQWWPCWLARLGDLCDLD [SEQ ID NO 2690]: the half-maximal inhibitory concentration (IC50) was below 100 µM.

The molecule WYPCWIAHLGELCDLE [SEQ ID NO 2671] came in with an IC50 below 100 µM. As for WHPCWIAHLGELCDLE [SEQ ID NO 2718], the half-inhibitory concentration (IC50) is below 100 µM. Molecule WYPCWLAHLGELCDLE [SEQ ID NO 2699] registered an IC50 below 100 µM. The value for WYPCWMAHLGELCDLE [SEQ ID NO 2804] was below 100 µM; that for WYPCWLAHLGELCDLA [SEQ ID NO 2725] was below 100 µM; that for AYRIYPCWKAQLGELCDLDNAD [SEQ ID NO 2641] was below 100 µM.

The molecule AHWSQPCWTAQLGELCDLDMGD (disulfide 7-16 (inferred)) [SEQ ID NO 2647] yielded an IC50 below 100 µM. The value for HGRWFPCWMAQVGDLCDLEHSN [SEQ ID NO 2676] was below 100 µM; that for MLGEWLCEMDQLGYLCYLDHGD [SEQ ID NO 2654] was below 100 µM; that for WRRWYPCWMAQLGELCDLDQWT (disulfide 7-16 (inferred)) [SEQ ID NO 2639] was below 100 µM. FGAFYPCWKAQLGELCDLEPVT [SEQ ID NO 2675] showed a concentration for half-maximal inhibition (IC50) below 100 µM. Then WYPCWMAQLGELCDLDEAPVQP [SEQ ID NO 2701], with below 100 µM; and WHPCWLARVGDLCDLD [SEQ ID NO 2696], with below 100 µM. The value for RRSWYPCRIAQLGELCDLDPRV (disulfide 7-16 (inferred)) [SEQ ID NO 2640] was below 100 µM; that for RSLRESWFPCWMAKLGDLCDLE [SEQ ID NO 2695] was below 100 µM. Molecule VWFPCWFAQLGDLCDLDQDP (disulfide 5-14 (inferred)) [SEQ ID NO 2678] displayed an IC50 below 100 µM. The value for MGTGWQNYCRYAQLGELCLL [SEQ ID NO 2652] was below 100 µM; that for WFPCWLAQLGELCDKE [SEQ ID NO 2681] was below 100 µM. RREWYPCWIAQVGELCDLPLI (disulfide 7-16 (inferred)) [SEQ ID NO 2673] came in with an IC50 below 100 µM. Then AVEFYPCWLARIGELCDLVEP [SEQ ID NO 2670], with below 100 µM; and QVMRLWYPCWMAQLGELCDLE [SEQ ID NO 2700], with below 100 µM; and WYPCGVAQPGDLCDLE [SEQ ID NO 2653], with below 100 µM. For RDIWWPCWVAQLGELCDLDDPQ [SEQ ID NO 2702], the IC50 was below 100 µM. The molecule SRSAGEYYPCWLAQLGELCDLA [SEQ ID NO 2697] gave an IC50 below 100 µM. Take WYPCWIARVGELCDLEEGPVNR [SEQ ID NO 2669]: the IC50 was below 100 µM. Then WYPCWLAKLGELCDLDRAEALP [SEQ ID NO 2677], with below 100 µM; and SHLWFPCWMAQLGELCDLEGGP [SEQ ID NO 2683], with below 100 µM; and WLPCWMAHLGDLCDLE [SEQ ID NO 2692], with below 100 µM.

WYPCWIAQLGELCDLV [SEQ ID NO 2682]: the 50% inhibitory concentration (IC50) is below 100 µM. In turn, QRNSFPCWLAQLGDLCDLGDWA [SEQ ID NO 2642] gave an IC50 below 100 µM. The value for QTGSYPCWIAHLGELCDLEGSA (disulfide 7-16 (inferred)) [SEQ ID NO 2649] was below 100 µM. The value for RPSWAPCWLAQVGELCDLDHPE [SEQ ID NO 2693] was below 100 µM; that for STGWYPCWIAEFGELCDLVKPH [SEQ ID NO 2646] was below 100 µM; that for QPAWLPCWLAQLGELCDLGTGA [SEQ ID NO 2643] was below 100 µM. The value for RRWLPCWMAHVGELCDLELGN [SEQ ID NO 2684] was below 100 µM; that for HGGVIGWYPCWMAKVGELCDLD [SEQ ID NO 2688] was below 100 µM. As for ESKEPAFWPCWMAQLGDLCDLE [SEQ ID NO 2694], the IC50 is below 100 µM. Take SATWYPCFLANLGELCDLEQEN [SEQ ID NO 2703]: the IC50 was below 100 µM. The value for TNNFYPCWLAKLGDLCDFDDLN [SEQ ID NO 2668] was below 100 µM; that for WYSCWIAQLGELCDLDDMGDRV [SEQ ID NO 2680] was below 100 µM. The value for TGWWYPCWMAQLGELCDLQQT [SEQ ID NO 2650] was below 100 µM; that for SRFWQPCWMAQLGELCHLDPQM [SEQ ID NO 2644] was below 100 µM. The value for WYPCWIARVGELCDME [SEQ ID NO 2672] was below 100 µM. As to WYPCWIARVGELCDLE [SEQ ID NO 2884], the IC50 was below 100 µM.

Molecule YLNFNPCWTAQLGELCDLASGE [SEQ ID NO 2645] displayed an IC50 below 100 µM. Turning to MNPVGTFYPCWIAKLGELCDLQ [SEQ ID NO 2687], the IC50 was below 100 µM. As for WYSCWIAQIGELCDLE [SEQ ID NO 2686], the IC50 is below 100 µM. Then WYPCWIAQLGELCDLDAKGQRR [SEQ ID NO 2667], with below 100 µM; and RWPWYPCEIARIGELCDLEQAN [SEQ ID NO 2674], with below 100 µM; and WDGWECGMDHDGWVCEFWGE [SEQ ID NO 2655], with below 100 µM.

For WYPCSIALLGELCDLESVHEKS [SEQ ID NO 2689], the half-maximal inhibitory concentration (IC50) is below 100 µM. In the case of HPVRYPCWVAQLGELCDLENGN [SEQ ID NO 2648], the IC50 was below 100 µM. The value for ETLGSVWYPCWIASIGELCDLD [SEQ ID NO 2679] was below 100 µM. The value for YWCWFARVGELCDLDDGGVPS [SEQ ID NO 2685] was below 100 µM; that for DLWQPCWMARLGELCDLKG [SEQ ID NO 2651] was below 100 µM; that for RQVPKQWYPCWMAALGELCDLE (disulfide 10-19 (inferred)) [SEQ ID NO 2698] was below 100 µM.
